Source: the supplement of paper PMC10724198
± gives the standard deviation of the averaged measurements.

System: Saccharomyces cerevisiae
Assay: protein stability index of tFT-peptide fusion (C-terminal peptide) (PSI (0-1 scale)); higher = more stable (slower turnover)
Conditions: genetic background: wild type; temperature: 30 C
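Note: PSI is a weighted mean of sequencing reads over stability bins, variants kept only with over 10 reads, mCherry proximal and sfGFP distal, peptide attached via GGGS linker.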

| Sequence | protein stability index |
| --- | --- |
| RPISPIAVGSVV | 0.6747 ± 0.0013 |
| WVSAMGIPRVVG | 0.574 ± 0.05 |
| MSRPGEGSYIGD | 0.652 ± 0.017 |
| RCYTLFLGRSRV | 0.68037 ± 0.00022 |
| SPPPARLLPPPS | 0.723 ± 0.12 |
| PAHLFVPSSLFR | 0.702 ± 0.042 |
| SIVAWGWPAASE | 0.85 ± 0.19 |
| RNSVGGHENWNQ | 0.703 ± 0.11 |
| GKNRKKEEHAKR | 0.702 ± 0.12 |
| SPPLPPLGFNPP | 0.6414 ± 0.0025 |
| YLFVRTGYRCKW | 0.681 ± 0.033 |
| LLDEHGKRRKKI | 0.713 ± 0.0011 |
| HAISHRVFLHSP | 0.665 ± 0.025 |
| PLPSPLLPRSVL | 0.705 ± 0.045 |
| AQCDAVPFMFCV | 0.663 ± 0.025 |
| SWSRAAYKGPWG | 0.702 ± 0.015 |
| PWKDPSLLLHRS | 0.743 ± 0.061 |
| PRRPPSSLWPYP | 0.669 ± 0.044 |
| TWKARFFMDLGN | 0.672 ± 0.12 |
| VLHQWWCIGLGC | 0.736 ± 0.013 |
| FIGFGCGLVWSV | 0.613 ± 0.019 |
| VCVSRGPGTSDA | 0.685 ± 0.02 |
| AESCRASVVFGV | 0.6849 ± 0.0041 |
| FGGSTPVLKPTQ | 0.719 ± 0.019 |
| PPPPPPLSPSPP | 0.756 ± 0.011 |
| RGIILSSSGFVW | 0.735 ± 0.012 |

| Sequence | protein stability index |
| --- | --- |
| AGGVEGRRRVGE | 0.642 ± 0.073 |
| RTRKYEDKSARM | 0.688 ± 0.021 |
| EKNEREEAESGG | 0.714 ± 0.038 |
| CERIGIRHLIKW | 0.657 ± 0.036 |
| QLSRHCYQPSGG | 0.671 ± 0.0073 |
| RGPAFAQPLPFL | 0.738 ± 0.034 |
| RMLVNKLSAFFI | 0.64 ± 0.053 |
| LLRSSPPLPPPS | 0.737 ± 0.029 |
| PPCAPFSPPALP | 0.659 ± 0.05 |
| GYPIIIFYSAVQ | 0.529 ± 0.051 |
| CVFSCLLATVFL | 0.533 ± 0.026 |
| TSTDLKKTNLQN | 0.645 ± 0.021 |
| VGTRVGCEAGVV | 0.637 ± 0.095 |
| GGCCLWVGFQGG | 0.703 ± 0.012 |
| PPLPPLPAPSPV | 0.652 ± 0.021 |
| FLRISPPPPSPP | 0.676 ± 0.077 |
| PLSPFLPPPVPL | 0.703 ± 0.13 |
| PQTPPSTLLLPP | 0.61 ± 0.1 |
| IVSPSYGEGSIR | 0.695 ± 0.026 |
| CDLISNFFLIGV | 0.633 ± 0.03 |
| GLFVSLRGLSLS | 0.71 ± 0.044 |
| SRPVSSFPPPLR | 0.664 ± 0.071 |
| LCCLSSLAMLFF | 0.7 ± 0.12 |
| RLPAPPTVPLPP | 0.6 ± 0.042 |
| PWGGMNWGGLSV | 0.745 ± 0.073 |
| SFCACDRYRIGV | 0.727 ± 0.038 |

| Sequence | protein stability index |
| --- | --- |
| SPPFLPPLITFP | 0.681 ± 0.023 |
| GVGGGRRGGGGG | 0.6409 ± 0.0036 |
| FRCPGFYVVIFP | 0.582 ± 0.0092 |
| HPRSAYSLAASL | 0.6633 ± 0.00083 |
| ACGLGGPSDIDN | 0.672 ± 0.013 |
| LVGSGLFGWGWN | 0.769 ± 0.073 |
| EKKKKTIRKRMT | 0.6691 ± 0.0018 |
| FPRLPSRPLSSL | 0.6898 ± 0.0033 |
| HEGAISLCRQTC | 0.592 ± 0.058 |
| DRRARTDEKKKK | 0.646 ± 0.01 |
| KYFCSLAFFLFA | 0.502 ± 0.0073 |
| TCNWQGASSIIG | 0.6765 ± 0.0033 |
| SLRRPPPRSRNG | 0.654 ± 0.048 |
| MVTRSLLLLLHG | 0.599 ± 0.053 |
| PSLLFILPSPLP | 0.689 ± 0.015 |
| SRFVRNRYGRVV | 0.648 ± 0.027 |
| ASNRVLRILLPR | 0.683 ± 0.05 |
| RCGRGVAAEWLS | 0.668 ± 0.06 |
| LPPRPPRPPPSP | 0.666 ± 0.019 |
| WGGGGRLAGLLG | 0.687 ± 0.037 |
| NLGFTTSWSFDL | 0.766 ± 0.066 |
| STVPSLVAGATF | 0.729 ± 0.11 |
| CQTRTKAKKTQV | 0.727 ± 0.0083 |
| ILCPFSGCGAGG | 0.683 ± 0.022 |
| WLFVGGWGVFGG | 0.674 ± 0.068 |
| VCLGAWGEGGRG | 0.664 ± 0.071 |

| Sequence | protein stability index |
| --- | --- |
| GVSTGSGASVAA | 0.659 ± 0.051 |
| VRLMARFESFLW | 0.69 ± 0.023 |
| CALWHLLPVNLH | 0.645 ± 0.059 |
| AAPDSGTPPLAA | 0.6435 ± 0.0043 |
| FSLLTFPPSSPT | 0.716 ± 0.016 |
| SVRFPPTFTMTL | 0.701 ± 0.042 |
| NAGHTGPYADGN | 0.669 ± 0.043 |
| EKIRSNIIKLEE | 0.64 ± 0.097 |
| QMKRPSCKGTCD | 0.679 ± 0.044 |
| GWRGRRGERARG | 0.749 ± 0.054 |
| RHLSRSVSKVLR | 0.629 ± 0.06 |
| LLPISFVSPPPG | 0.6915 ± 0.0026 |
| PLPPLPPPPPPP | 0.639 ± 0.051 |
| GWAVGVGGGRGR | 0.686 ± 0.017 |
| RNGFGSWFRWKM | 0.7014 ± 0.0069 |
| HPPHFPTPFFSP | 0.702 ± 0.036 |
| GLFFISLFFPFL | 0.575 ± 0.0096 |
| GVNGFRIVCGGE | 0.674 ± 0.062 |
| PPSGPTDTQEQG | 0.661 ± 0.035 |
| AVVGCGGGWWWA | 0.715 ± 0.13 |
| PTPPNSPRPPTP | 0.63 ± 0.12 |
| LESLWEAIRTLF | 0.5136 ± 0.005 |
| SMFRNSWRKNKS | 0.602 ± 0.012 |
